Measured values: publication PMC3653948, “PDZ Domain-Mediated Interactions of G Protein-Coupled Receptors with Postsynaptic Density Protein 95: Quantitative Characterization of Interactions” (PLoS ONE, 2013)
Ends that are not written are not given here.

B1: SSTR3 C-tail peptide (human) (peptide)
peptide: DDRKSSTMRISYL
notes: N-terminal linker; DDR (Tyr omitted) because the C-tail contains Tyr, by the rule of the methods; somatostatin receptor 3, human, 10 C-terminal aa; source: synthetic peptide (Schafer-N)
B2: CRIPT C-tail peptide (human), unlabeled (peptide)
peptide: LDTKNYKQTSV
notes: No YDDR/DDR linker is told for this peptide
B3: BAI1 C-tail peptide (human) (peptide)
peptide: YDDRQDIIDLQTEV
notes: N-terminal linker; YDDR because the C-tail has no Tyr or Trp, by the rule of the methods; BAI1 receptor, human, 10 C-terminal aa; also called BAI1 receptor; source: synthetic peptide (Schafer-N)
B4: 5-HTR2C C-tail peptide (human) (peptide)
peptide: YDDRSVVSERISSV
notes: N-terminal linker; YDDR because the C-tail has no Tyr or Trp, by the rule of the methods; 5-hydroxytryptamine receptor 2C, human, 10 C-terminal aa; source: synthetic peptide (Schafer-N)
B5: β1AR C-tail peptide (human) (peptide)
peptide: YDDRRPGFASESKV
notes: N-terminal linker; YDDR because the C-tail has no Tyr or Trp, by the rule of the methods; β1-adrenergic receptor, human, 10 C-terminal aa; also called β1-adrenergic receptor; source: synthetic peptide (Schafer-N)
B6: 5-HTR2A C-tail peptide (human) (peptide)
peptide: YDDRDGVNEKVSCV
notes: N-terminal linker; YDDR because the C-tail has no Tyr or Trp, by the rule of the methods; 5-hydroxytryptamine receptor 2A, human, 10 C-terminal aa; also called 5-hydroxytryptamine receptor 2A; source: synthetic peptide (Schafer-N)
B7: β2AR C-tail peptide (human) (peptide)
peptide: YDDRRNCSTNDSLL
notes: N-terminal linker; YDDR because the C-tail has no Tyr or Trp, by the rule of the methods; β2-adrenergic receptor, human, 10 C-terminal aa; source: synthetic peptide (Schafer-N)
B8: KIF1Bα C-tail peptide (human), unlabeled (peptide)
peptide: YDDRNLKAGRETTV
notes: N-terminal linker (solubility, concentration determination); YDDR because the C-tail has no Tyr or Trp, by the rule of the methods; source: synthetic peptide (Schafer-N)
B9: SSTR1 C-tail peptide (human) (peptide)
peptide: YDDRGTCTSRITTL
notes: N-terminal linker; YDDR because the C-tail has no Tyr or Trp, by the rule of the methods; somatostatin receptor 1, human, 10 C-terminal aa; also called hSSTR1; source: synthetic peptide (Schafer-N)
B10: GluN2B C-tail peptide (human), unlabeled (peptide)
peptide: YEKLSSIESDV
notes: No YDDR/DDR linker is told for this peptide; also called NR2B
B11: SSTR1 C-tail peptide (mouse) (peptide)
peptide: YDDRGTCASRISTL
notes: N-terminal linker; YDDR because the C-tail has no Tyr or Trp, by the rule of the methods; somatostatin receptor 1, mouse, 10 C-terminal aa; also called mSSTR1; source: synthetic peptide (Schafer-N)
B12: β2-adrenergic receptor (β2AR) C-tail peptide, human (peptide)
chain: RNCSTNDSLL-OH
modifications: not fully specified
B13: metabotropic glutamate receptor mGlu1(a) C-tail peptide, human (peptide)
chain: RDYKQSSSTL-OH
modifications: not fully specified
B14: metabotropic glutamate receptor mGlu7(a) C-tail peptide, human (peptide)
chain: KYVSYNNLVI-OH
modifications: not fully specified

What follows are binders tested against T1, PSD-95 PDZ3 (aa 309-401) (UniProt P78352 309-401) (assay: SPR; PDZ domain immobilised by amine coupling (CM5 for PDZ1 and PDZ2, CM4 for PDZ3), peptides injected; Biacore X100, 25.0°C, HBS-EP+ (10 mM HEPES pH 7.4, 150 mM NaCl, 3 mM EDTA, 0.05% Surfactant P-20); 1 mM DTT for peptides with a cysteine; Kd from steady-state responses, 1:1 model with a linear component). Details: both partners purified.
T1 construct: postsynaptic density protein 95 (PSD-95), PDZ3, aa 309-401
For B1, the Kd was 240 µM.
In the case of B2, the Kd is reported as 1.5 µM.
B3 gave a Kd of 2400 µM.
B4 was tested, and the Kd was 780 µM.
Work on B5 yielded a Kd of 400 µM.

What follows are binders tested against T2, PSD-95 PDZ2 (aa 155-249) (UniProt P78352 155-249) in the same assay as above. Details: both partners purified.
T2 construct: postsynaptic density protein 95 (PSD-95), PDZ2, aa 155-249
B6 showed a Kd of 110 µM.
For B7, the Kd was 2090 µM.
For B8, the Kd was 1.1 µM.
In the case of B9, the Kd is reported as 76 µM.
In the case of B3, the Kd is reported as 74 µM.
B4 gave a Kd of 62 µM.
Work on B5 yielded a Kd of 180 µM.
For B10, the Kd was 1.4 µM.

Each binder was assayed against T3, PSD-95 PDZ1 (aa 61-151) (UniProt P78352 61-151) in the same assay as above. Details: both partners purified.
T3 construct: postsynaptic density protein 95 (PSD-95), PDZ1, aa 61-151
For B6, the Kd was 630 µM.
Binder B11 has a Kd of 270 µM.
B8 showed a Kd of 2.2 µM.
For B9, the Kd was 84 µM.
In the case of B3, the Kd is reported as 120 µM.
B4 was tested, and the Kd was 160 µM.

These binders were tested against PSD-95 PDZ1 (aa 61–151) (UniProt P78352 61-151) (assay: fluorescence polarisation; competition: 25 nM Cy5-labeled probe and a constant concentration of PDZ protein corresponding to the K d of the probe, twofold dilution series of unlabeled peptide (typically 1–512 µM); 10 mM HEPES pH 7.4, 150 mM NaCl, 1% BSA; room temperature; K i calculated from the IC50). Details: both partners purified.
Work on B12 yielded a Ki of over 1000 µM.
Binder B13 has a Ki of 830 µM.
In the case of B14, the Ki is reported as 610 µM.

The binders below were run against T4, PSD-95 PDZ3 (aa 309–401) (UniProt P78352 309-401) in the same assay as above. Details: both partners purified.
T4 construct: postsynaptic density protein 95 (PSD-95), PDZ3, aa 309–401
In the case of B12, the Ki is reported as over 1000 µM.
B13 gave a Ki of over 1000 µM.
In the case of B14, the Ki is reported as over 1000 µM.

These binders were tested against T5, PSD-95 PDZ2 (aa 155–249) (UniProt P78352 155-249) in the same assay as above. Details: both partners purified.
T5 construct: postsynaptic density protein 95 (PSD-95), PDZ2, aa 155–249; also called isolated PDZ2
In the case of B12, the Ki is reported as 720 µM.
With B13 the Ki was over 1000 µM.
Work on B14 yielded a Ki of over 1000 µM.

Each binder was assayed against T1, PSD-95 PDZ3 (aa 309-401) (assay: fluorescence polarisation; competition: 25 nM Cy5-labeled probe (Cy5-KIF1Bα for PDZ1, Cy5-GluN2B for PDZ2, Cy5-CRIPT for PDZ3), constant PDZ protein at the probe's Kd, twofold dilution series of unlabeled peptide (typically 1–512 µM); 10 mM HEPES pH 7.4, 150 mM NaCl, 1% BSA, room temperature; Ki calculated from IC50). Details: both partners purified.
In the case of B2, the Ki is reported as 2.9 µM.
B8 showed a Ki of 14 µM.
Binder B10 has a Ki of over 1000 µM.

What follows are binders tested against T2, PSD-95 PDZ2 (aa 155-249) in the same assay as above. Details: both partners purified.
B8 gave a Ki of 3.8 µM.
With B10 the Ki was 5.5 µM.

What follows are binders tested against T3, PSD-95 PDZ1 (aa 61-151) in the same assay as above. Details: both partners purified.
B8 showed a Ki of 7 µM.
B10 gave a Ki of 29 µM.
